Residue numbers refer to the chain shown, from its start. Names may count otherwise.
Legend:
[1] = test system: Arthrobacter sp. TE1826 modified sarcosine oxidases of Example 3B (SEQ ID NO:1 variants); test: Km of modified sarcosine oxidases of Example 3B compared with unmodified; type: biochemical; details: modified vs unmodified; nearly equal to or within 1.5 times
Method: (§1) • 100 mM Tris-HCl buffer (pH 8.0) (containing 200 mM sarcosine and 0.1% Triton X-100) • 0.1% 4-aminoantipyrine • 0.1% phenol • 25 U/mL peroxidase <Measurement Condition>
(§2) A reaction mixture is prepared by mixing the above Tris-HCl buffer, 4-aminoantipyrine solution, phenol solution and peroxidase solution at a ratio of 5:1:2:2. The reaction mixture (1 mL) is taken to a test tube, preliminarily warmed at 37° C. for about 5 min, and 0.05 mL of an enzyme solution is added to start the reaction. The reaction at 37° C. is performed accurately for 10 min, then 2.0 mL of an aqueous solution of 0.25% SDS is added to stop the reaction, and an absorbance at 500 nm of this solution is measured. In a blind test, distilled water instead of the enzyme solution is added to the reagent mixture, and the same manipulation is followed to measure the absorbance. […] The reactivity to proline was measured as a relative ratio of activities when sarcosine in the above reagent was replaced by L-proline at the same concentration.
(§3) Various sarcosine oxidases obtained in Example 3B and Comparative Example 1 were evaluated.
(§4) Action on proline was calculated from a relative ratio (%) of the enzyme activity using L-proline as the substrate to the enzyme activity suing sarcosine as the substrate in the above activity measurement method. […]

[2] = substrate: CNCC(=O)O; test: Km of modified sarcosine oxidase SAOM3B; type: biochemical, Arthrobacter sp. TE1826; details: other: SAOM3B, K322R, 37° C., pH 8.0
Method: as §1
as §2, with “concentration. […]” for “concentration.”
as §3, §4

[3] = substrate: CNCC(=O)O; test: Km of modified sarcosine oxidase SAOM4B; type: biochemical, Arthrobacter sp. TE1826; details: other: SAOM4B, 37° C., pH 8.0
Method: as §1
as §2, with “concentration. […]” for “concentration.”
as §3, §4

CNCC(=O)O [sarcosine]
Km value for sarcosine relative to the Km value of the unmodified sarcosine oxidase [1]: ≤ 1.5 times

B1: Arthrobacter sp. TE1826 sarcosine oxidase (SEQ ID NO:1) variant SAOM3B, K322R (Arthrobacter sp. TE1826; K322R) (protein)
chain: MSIKKDYDVIVVGAGSMGMAAGYYLSKQGVKTLLVDSFHPPHTNGSHHGDTRIIRHAYGEGREYVPFALRAQELWYELEKETHHKIFTKTGVLVFGPKGEAPFVAETMEAAKEHSLDVDLLEGSEINKRWPGVTVPENYNAIFEKNSGVLFSENCIRAYRELAEANGAKVLTYTPVEDFEIAEDFVKIQTAYGSFTASKLIVSMGAWNSKLLSKLNIEIPLQPYRQVVGFFECDEKKYSNTHGYPAFMVEVPTGIYYGFPSFGGCGLKIGYHTYGQKIDPDTINREFGIYPEDEGNIRKFLETYMPGATGELKSGDVCMYTRTPDEHFVIDLHPQFSNVAIAAGFSGHGFKFSSVVGETLSQLAVTGKTEHDISIFSINRPALKQKETI
Km [2]: 4.7 mM mM

B2: Arthrobacter sp. TE1826 sarcosine oxidase (SEQ ID NO:1) variant SAOM4B, V94G, E250Q (Arthrobacter sp. TE1826; E250Q/V94G) (protein)
chain: B1 chain with V94G, E250Q, R322K
Km [3]: 3.4 mM mM

Reference: patent publication US20060051832A1, “Modified sarcosine oxidase, process for producing the same and reagent composition using the same” (Toyo Boseki Kabushiki Kaisha, priority 2002, published 2006)
